From article PMC8865458 come the findings set out here.

This series relates to T1, His-NrtR (Pseudomonas aeruginosa PAK), ORF:d24b93ef.
T1 sequence: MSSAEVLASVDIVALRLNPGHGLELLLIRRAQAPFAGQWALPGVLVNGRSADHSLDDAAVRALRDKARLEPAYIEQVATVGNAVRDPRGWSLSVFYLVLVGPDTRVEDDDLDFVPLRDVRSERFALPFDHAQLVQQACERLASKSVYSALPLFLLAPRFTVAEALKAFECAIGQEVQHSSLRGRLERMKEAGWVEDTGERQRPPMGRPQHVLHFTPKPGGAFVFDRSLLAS
The series is described as follows: EMSA. As to conditions: 10 mM Tris, 1 mM DTT, pH 7.5, […].
Regarding “AGAAAATACCTTCCACTGCGAAATTTTGTAGTACAAGTGCTTGACGACTTATTTCACGTGATGAATTATGTACCCACATTCAGCCCCAACCCGTCAAGCGGAGGCTTCC (double strand) [nadD2 promoter fragment]”, the binding entry was “binds”. As to “CAGGAGTGATATTAGCGATTCCCAGTGCTCCCGCAACCTGCCAGAAAACCCAGCGAAGCTTCTTCGGCAGCCATTTTAGAAAAATATATTCCTTTAATTTCAATAAGTTACTTAAATTCACCGAGCGTTTTTGGCAAACCTCCCGGGCATTTATCTACTTAGGCTCACACGCCGTGTAAGTTAATGCTTACAAGAGCAGACACAAAAAACCCGGCGAACGCCGGGTCTTCAGTGGGTCTAAGGTTTTCCG (double strand) [rsmZ promoter fragment]”, the binding entry is listed as “binds”. Consider “CCGCGTTGCCGACCGTGGCCACCTGCTCGATGTAGGCCGGCTCCAGCCGCGCCTTGTCGCGCAGGGCGCGCACCGCCGCGTCGTCGAGGCTGTGGTCGGCGCTGCGGCCGTTGACCAGCACGCCGGGCAAGGCCCACTGGCCGGCGAAAGGCGCCTGGGCGCGGCGGATCAGCAACA (double strand) [nrtR coding fragment]”, for which the binding result was “no binding”. Next, “GCTGGGAAGGCTCGCGATGATGAGGGGACTGGCCACTGTAGCGGGCCCGGCGCAGATCATCTTGACGCACGGCAAGCTCCCGGCGGCTGGGTGTTGCCGTCGGTCCGGCGAGCGGAACTATTACAGCGTGTAAGCCAAGGCTTACAAACGGCGGTGGTTTTGGCTGCTTTCTCCCCCTCGCGGAGATGCGTAATCTTCAAACCGTCAGGACATTGCGCAGGAAGCGCCAAAGACAATACGG (double strand) [rsmY promoter fragment]”: “binds”.
